From patent US20050181479A1 (AstraZeneca / MedImmune, published 2005) come the findings set out here.

The target in the assay is T1, human EphA2-Fc (human, UniProt P29317 25-534, limits assumed, biotinylated in the capture ELISA (sites not given)).
T1 construct: also called biotinylated human EphA2-Fc; human receptor tyrosine kinase EphA2; not shown: Fc portion; species, isotype and any linker are not described
In words: EphA2-specific capture ELISA: Fab from E. coli samples captured on anti-human Fab or anti-Fd, detected with biotinylated human EphA2-Fc. The procedure:
Capture ELISA: An EphA2-specific capture ELISA was carried out as follows: briefly, individual wells of a 96-well Maxisorp Immunoplate were coated with 20 or 2000 ng of a goat anti-human Fab antibody (Cappel, Calif.) or of a sheep anti-human Fd (BioDesign, ME), blocked with 3% BSA/PBS for 2 h at 37° C. and then incubated with 75 μl of the various samples (supernatants, periplasmic extracts and whole cell extracts of G5 Fab, 12G3 Fab, irrelevant Fab and variants thereof) for 2 hours at room temperature. 300 ng/well of biotinylated human EphA2-Fc was then added for 1.5 hours at room temperature. This was followed by incubation with a neutravidin-horseradish peroxidase (HRP) conjugate for 40 min at room temperature. HRP activity was detected with tetra methyl benzidine (TMB) substrate and the reaction quenched with 0.2 M H₂SO₄. Plates were read at 450 nm.

T1 sequence (P29317 25-534 limits assumed): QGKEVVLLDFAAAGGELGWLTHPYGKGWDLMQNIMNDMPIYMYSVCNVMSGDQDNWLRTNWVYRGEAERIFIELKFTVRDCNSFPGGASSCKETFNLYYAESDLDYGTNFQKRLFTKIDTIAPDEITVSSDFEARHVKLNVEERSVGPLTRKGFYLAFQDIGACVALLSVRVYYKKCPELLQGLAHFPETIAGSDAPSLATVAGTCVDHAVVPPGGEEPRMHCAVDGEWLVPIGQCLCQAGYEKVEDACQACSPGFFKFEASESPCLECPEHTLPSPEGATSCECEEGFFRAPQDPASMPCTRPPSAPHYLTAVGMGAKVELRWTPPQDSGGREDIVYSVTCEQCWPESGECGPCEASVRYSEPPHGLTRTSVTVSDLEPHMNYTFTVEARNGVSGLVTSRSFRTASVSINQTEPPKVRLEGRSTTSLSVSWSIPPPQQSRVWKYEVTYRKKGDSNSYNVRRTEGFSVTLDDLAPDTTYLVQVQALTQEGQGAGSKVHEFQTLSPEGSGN

B1: G5 Fab (Fab, V domains shown)
VH: QMQLVQSGPEVKKPGTSVKVSCKASGFTFTDYSMNWVRQARGQRLEWIGFIRNKANDYTTEYSASVKGRVTITRDMSTSTAYMELSSLRSEDTAVYYCARYPRYHAMDSWGQGTSVTVSS
VL: DIQMTQSPSSLSASVGDRVTITCRASQSISNNLHWYQQKPGKAPKLLIKYVFQSISGVPSRFSGSGSGTDFTFTISSLQPEDFATYYCQQSNSWPLTFGGGTKVEIK
notes: Fab expressed in E. coli TG1 from an M13-based phage vector and tested as unpurified supernatant, periplasmic extract or whole cell extract; They are kept as one molecule, since the leader is not part of the mature Fab; also called mAb G5; anti-EphA2 Fab
On to B1, for which the binding result is given as “binds”.

B2: 12G3 Fab (Fab, V domains shown)
VH: QMQLVQSGPEVKKPGTSVKVSCKASGFTFDDYSMNWVRQARGQRLEWIGFIRNKANDYTTEYSASVKGRVTITRDMSTSTAYMELSSLRSEDTAVYYCARYPRHHAMDSWGQGTSVTVSS
VL: DIQMTQSPSSLSASVGDRVTITCRASQSISNNLHWYQQKPGKAPKLLIKYAFQSISGVPSRFSGSGSGTDFTFTISSLQPEDFATYYCQQANSWPLTFGGGTKVEIK
notes: Fab expressed in E. coli TG1 from an M13-based phage vector and tested as unpurified supernatant, periplasmic extract or whole cell extract; They are kept as one molecule, since the leader is not part of the mature Fab; also called mAb12G3; anti-EphA2 Fab
Regarding B2, the binding result was “binds”.
